Test results published in patent US20180327506A1.
Each block holds one binder with its values, some of them ahead of it.

Key:
[1] = target: full-length mature cynomolgus EMR2 (residues Q24-N816) with N-terminal aspartic acid/lysine epitope tag, overexpressed on HEK293T cells (cynomolgus monkey (Macaca fascicularis))
[2] = target: full-length mature cynomolgus EMR2 (residues Q24-N816) with N-terminal aspartic acid/lysine epitope tag, overexpressed on HEK293T cells (cynomolgus monkey (Macaca fascicularis)); experiment: flow cytometry on transduced HEK293T; 293 naive MFI ND
[3] = target: full-length mature cynomolgus EMR2 (residues Q24-N816) with N-terminal aspartic acid/lysine epitope tag, overexpressed on HEK293T cells (cynomolgus monkey (Macaca fascicularis)); experiment: flow cytometry on transduced HEK293T; 293 naive MFI 96.8

Sequence of full-length mature cynomolgus EMR2 (residues Q24-N816) with N-terminal aspartic acid/lysine epitope tag, overexpressed on HEK293T cells (cynomolgus monkey (Macaca fascicularis)) (chain, as listed by the source): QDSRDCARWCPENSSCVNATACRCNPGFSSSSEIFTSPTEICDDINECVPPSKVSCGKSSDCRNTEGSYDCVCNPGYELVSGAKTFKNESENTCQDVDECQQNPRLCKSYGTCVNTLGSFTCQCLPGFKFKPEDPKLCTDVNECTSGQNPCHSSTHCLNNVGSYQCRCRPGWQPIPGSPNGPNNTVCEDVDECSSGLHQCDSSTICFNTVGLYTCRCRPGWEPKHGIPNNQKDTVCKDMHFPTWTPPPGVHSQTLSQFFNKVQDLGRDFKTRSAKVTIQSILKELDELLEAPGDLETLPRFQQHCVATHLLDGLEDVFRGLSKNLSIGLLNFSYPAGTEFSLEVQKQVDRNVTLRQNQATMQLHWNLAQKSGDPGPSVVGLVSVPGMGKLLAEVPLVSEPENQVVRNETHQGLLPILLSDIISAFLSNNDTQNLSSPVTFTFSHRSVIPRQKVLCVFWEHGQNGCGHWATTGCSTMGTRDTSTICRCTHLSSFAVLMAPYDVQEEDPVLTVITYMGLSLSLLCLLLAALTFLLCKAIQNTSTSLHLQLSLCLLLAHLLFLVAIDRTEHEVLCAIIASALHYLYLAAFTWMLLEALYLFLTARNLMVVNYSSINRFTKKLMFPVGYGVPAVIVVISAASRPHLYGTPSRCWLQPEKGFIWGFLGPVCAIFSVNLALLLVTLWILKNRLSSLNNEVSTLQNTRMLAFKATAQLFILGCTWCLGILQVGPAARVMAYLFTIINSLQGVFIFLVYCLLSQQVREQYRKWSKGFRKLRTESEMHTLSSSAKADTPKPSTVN

- FC MFI [2]: 41.2
B1: SC93.15 (antibody, IgG1, V domains shown)
VH: EVQLQQSGPELVKPGASVKISCKGSGYTFTDYFMNWVKLSHGKSLEWIGEINPNNGGTNYNQKFKGKATLTVDKSSSIAYMELRSLTSEDSAVYYCARPGTNYWGPGTTLTVSS
VL: DIVMTQSHKFMSTSVGDRVSITCKASQNVGTSVAWYQQKPGHSPKLLIYWASTRHTGVPDRFTGSGSGTDFSLTISSVQSEDLTDYFCQQYSSYPLTFGGGTKLEIK
- % live, FAB-saporin killing assay [1]: 101%

- FC MFI [3]: 220
B2: SC93.216 (antibody, IgG1, V domains shown)
VH: EVQLVESGGGLVKPGGSLKLSCAASGFTFSSYGMSWVRQTPEKRLEWVAAIHSNGDITYYPDTVKGRFTISRDNAKNTLYLQMSSLTSEDTALYYCANLAYWGQGTLVTVSA
VL: EIQMTQSPSSMSASLGDRITITCQATQDIVKNLNWYQQKPGKSPSSLIYYATELAEGVPSRFSGSGSGSDYSLTISNLESEDFADYYCLQFYEFPLTFGAGTKLELK
- % live, FAB-saporin killing assay [1]: 105%
